{
  "source": "patent US20250205337A1",
  "about": "“COMPOSITIONS AND METHODS FOR ACTIVATING IMMUNE CELLS” (MDX Management LLC, priority 2022, published 2025)",
  "molecules": {"B1": {"name": "M-CSF: classical macrophage differentiation factor (protein, UniProt P09603 33-554, looked up)", "Macrophage colony-stimulating …": "EEVSEYCSHMIGSGHLQSLQRLIDSQMETSCQITFEFVDQEQLKDPVCYLKKAFLLVQDIMEDTMRFRDNTPNAIAIVQLQELSLRLKSCFTKDYEEHDKACVRTFYETPLQLLEKVKNVFNETKNLLDKDWNIFSKNCNNSFAECSSQDVVTKPDCNCLYPKAIPSSDPASVSPHQPLAPSMAPVAGLTWEDSEGTEGSSLLPGEQPLHTVDPGSAKQRPPRSTCQSFEPPETPVVKDSTIGGSPQPRPSVGAFNPGMEDILDSAMGTNWVPEEASGEASEIPVPQGTELSPSRPGGGSMQTEPARPSNFLSASSPLPASAKGQQPADVTGTALPRVGPVRPTGQDWNHTPQKTDHPSALLRDPPEPGSPRISSLRPQGLSNPSTLSAQPQLSRSHSSGSVLPLGELEGRRSTRDRRSPAEPEGGPASEGAARPLPRFNSVPLTDTGHERQSEGSFSPQLQESVFHLLVPSVILVLLAVGGLLFYRWRRRSHQEPQRADSPLEQPEGSPLTQDDRQVELPV"}, "B2": {"name": "IL-12: IL-12 family cytokine, STAT3 activator (protein, UniProt P29459 23-219; P29460 23-328, looked up)", "Interleukin-12 subunit alpha": "RNLPVATPDPGMFPCLHHSQNLLRAVSNMLQKARQTLEFYPCTSEEIDHEDITKDKTSTVEACLPLELTKNESCLNSRETSFITNGSCLASRKTSFMMALCLSSIYEDLKMYQVEFKTMNAKLLMDPKRQIFLDQNMLAVIDELMQALNFNSETVPQKSSLEEPDFYKTKIKLCILLHAFRIRAVTIDRVMSYLNAS", "Interleukin-12 subunit beta": "IWELKKDVYVVELDWYPDAPGEMVVLTCDTPEEDGITWTLDQSSEVLGSGKTLTIQVKEFGDAGQYTCHKGGEVLSHSLLLLHKKEDGIWSTDILKDQKEPKNKTFLRCEAKNYSGRFTCWWLTTISTDLTFSVKSSRGSSDPQGVTCGAATLSAERVRGDNKEYEYSVECQEDSACPAAEESLPIEVMVDAVHKLKYENYTSSFFIRDIIKPDPPKNLQLKPLKNSRQVEVSWEYPDTWSTPHSYFSLTFCVQVQGKSKREKKDRVFTDKTSATVICRKNASISVRAQDRYYSSSWSEWASVPCS"}},
  "assay_type_in_all_cases": "cell-based, human",
  "key": {"κAPC": {"system": "κAPC", "experiment": "Proinflammatory phenotype of κAPC (KX2 refinement)", "conditions": "in the presence of tumor cells", "excerpt": "Karnelian X1 cytokines, additional cytokines, TLR ligands and other factors for phenotypic optimization of cMo-derived APCs were further tested. These efforts led to the formation of Karnelian X2, which acted to further bolster κAPC for phagocytosis, immunogenic antigen presentation, and T cell priming, and also endowed κAPC with a proinflammatory phenotype and the ability to resist repolarization in the tumor microenvironment. KX2™ comprises cytokines (choices of IFNα, IFNγ and TNFα), TLR ligands (choices of Poly IC, CpG, R848), and TPI-1."}, "[1]": {"system": "monocytes from cancer patients (cMo)", "experiment": "Cytokine depletion assays of Karnelian X1 (cMo survival/adhesion and differentiation)", "conditions": "depletion assays", "procedure": "The differentiation of cMo from >100 cancer patient samples was tested.\nThe role of IL-10 and other key factors in KX1 was further studied."}, "[2]": {"system": "monocytes from cancer patients (cMo)", "experiment": "cMo survival in vitro (STAT3 activators, inhibitors, M-CSF/GM-CSF, KX1)", "excerpt": "After two days, the T cell culture medium was used to treat cMo.\nIL-10/IL-10R signaling activates the downstream STAT3 signaling pathway.\n(§1) The mechanisms by which KX1 could promote cMo survival was further studied."}, "[3]": {"system": "Akt, Erk1/2, STAT3, caspase-9 and caspase-3 in cMo", "experiment": "Survival and apoptosis signal transduction in cMo (Western blotting)", "excerpt": "(§2) Examination of Akt and Erk1/2, as well as other signaling molecules, detected similar total levels in Mo versus cMo (FIG. 2C), ruling out the absence of protein phosphorylation due to reduction of protein translation.\nas §1\nThe role of IL-10 and other key factors in KX1 was further studied. As shown in FIG. 9A-9D, depletion of IL-10 diminished (>70%) KX1-mediated activation of Akt, Erk 1/2, and STAT3, and this global reduction of survival signal was associated with an increase in cell death signal through activation of caspase-9 and caspase-3.\nAs shown in FIG. 10A-10C, triple cytokine combination (C-combo V1) was capable of achieving >80% cMo differentiation, although each component alone was not sufficient."}, "[4]": {"system": "monocytes from healthy donors (Mo)", "experiment": "Response of monocytes from healthy donors (Mo) to M-CSF and GM-CSF", "excerpt": "Similarly, cMo poorly respond to GM-CSF alone or GM-CSF plus IL-4 that drives DC differentiation (data not shown). […] Parallel experiments testing the same M-CSF and GM-CSF reagents successfully differentiated Mo from healthy donors with >90% survival rates.\nas §2"}, "IL-10": {"system": "IL-10", "experiment": "IL-10 production by cMo", "excerpt": "Particularly, high levels of IL-10 and IL-6 were detected in Karnelian X1. Further cytokine depletion assays confirmed the critical role of IL-10, and its depletion largely (60-80%) diminished the capacity of cMo adhesion and survival (FIG. 5B)."}},
  "note": "“Also recorded” adds a separate entry of the source.",
  "data": [
    {"molecule": "O=C1C=CC(=O)C(c2cc(Cl)ccc2Cl)=C1", "note": "[TPI-1]", "values": [
      {"measurement": "proinflammatory phenotype of κAPC", "setting": "κAPC", "result": "promotes proinflammatory phenotype of κAPC"}
    ]},
    {"molecule": "B1", "values": [
      {"measurement": "role of the cytokine in Karnelian X1 for cMo survival and differentiation", "setting": "[1]", "result": "dispensable"},
      {"measurement": "cMo responsiveness to differentiation factor", "setting": "[2]; over twenty cMo samples, various solid tumors", "result": "non- or poor responsiveness"},
      {"measurement": "activation of Akt, Erk1/2, STAT3 in cMo", "setting": "[3]", "result": "failed to activate Akt and Erk1/2"},
      {"measurement": "caspase-9 and caspase-3 cleavage in cMo", "setting": "[3]", "result": "increased caspase-9 and caspase-3 cleavage; also recorded: did induce apoptotic signals via cleavage of caspase-9 and caspase-3"},
      {"measurement": "survival signal transduction in Mo (activation of Akt and Erk1/2)", "setting": "[4]", "result": "induced strong survival signal transduction in Mo cells"}
    ]},
    {"molecule": "B2", "values": [
      {"measurement": "induction of IL-10 in cMo", "setting": "IL-10", "result": "induction of IL-10"},
      {"measurement": "cMo survival (and differentiation) on supplementation", "setting": "[2]; IL-10-depleted KX1 / in place of IL-10", "result": "could replace IL-10 to support cMo survival and differentiation"},
      {"measurement": "Effectiveness (cMo survival rate)", "setting": "[2]; in vitro, at optimal concentration", "result": "50-70%"},
      {"measurement": "Optimal concentration (ng/mL)", "setting": "[2]; promoting cMo survival in vitro", "result": ">10 ng/mL (10-100)"}
    ]}
  ]
}
